This note sets out measurements from patent publication US20250388697A1 (UNIVERSITY OF MASSACHUSETTS, published 2025).

The assay concerns the target T1, endogenous murine SOD1 WT (in non-transgenic mouse spinal cord lysate) (mouse, UniProt P08228 2-154).
T1 construct: Tested only as a component of clarified spinal cord lysate; also called marine SOD1 WT (as printed once)
As to the kind of experiment: competitive ELISA: Nb54 (0.2 µg/ml) on immobilized SOD1 G93A with Non-Tg mouse spinal cord lysate as competitor. (In general: An ELISA detects its analyte on a solid surface through an enzyme-linked reagent.)

T1 sequence (P08228 2-154 limits assumed): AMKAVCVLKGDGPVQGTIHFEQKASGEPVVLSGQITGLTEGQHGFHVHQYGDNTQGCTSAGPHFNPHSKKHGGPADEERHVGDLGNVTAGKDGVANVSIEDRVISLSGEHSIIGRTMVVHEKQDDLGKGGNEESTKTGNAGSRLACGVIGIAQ
Experimental: A competitive ELISA was used to assess a potential interaction between nanobody and SOD1 derived from an ALS mouse model as follows. […] All research involving animals for the following post-mortem tissue processing was reviewed and approved by the Institutional Animal Care and Use Committee (IACUC) at the University of Massachusetts Chan Medical School.
Serial dilutions were prepared in 25 μl of assay buffer (0.2% (w/v) BSA in PBS). […] A statistical analysis was performed as described below and in the figure legend.

B1: Nb54 with a non-cleavable his-tag (used in the competitive ELISA) (VHH)
VHH: QVQLVESGGGWVQAGGSLRLSCVVSGTNFNDRSMGWYRQAPGKERELVATLSYGGRRNYVDAVKARFTMSRDNRKNTTYLLMNDLEPDDTAVYYCAAGHVLESVVPATTWIEYWGQGTQVTVSS
notes: not shown: non-cleavable his-tag
Take B1: the binding result is “no binding”.
